Results on six sequences are retold here after patent publication US20200362323.

Assay in all cases: cell_activity
The test system of data set [1] is mouse TRB2-TALEN right (artificial (Xanthomonas TALE-FokI)?). The conditions noted are these: SSA reporter assay in HEK293T, pair with left TALEN; site given as top strand.
Data set [2] has as its system mouse TRB1-TALEN left (artificial (Xanthomonas TALE-FokI)?). The note with it: SSA reporter assay in HEK293T, pair with right TALEN.
Data set [3] relates to mouse TRA2-TALEN left (artificial (Xanthomonas TALE-FokI)?). The conditions noted are these: SSA reporter assay in HEK293T, pair with right TALEN.
The test system of data set [4] is mouse TRB2-TALEN left (artificial (Xanthomonas TALE-FokI)?). The conditions noted are these: SSA reporter assay in HEK293T, pair with right TALEN.
The subject of data set [5] is mouse TRB1-TALEN right (artificial (Xanthomonas TALE-FokI)?). The note with it: SSA reporter assay in HEK293T, pair with left TALEN; site given as top strand.
Data set [6] relates to mouse TRA2-TALEN right (artificial (Xanthomonas TALE-FokI)?). The note with it: SSA reporter assay in HEK293T, pair with left TALEN; site given as top strand.

“GGAGCTGAGCTGGTGGGTGA (double strand) [mouse TRB2 right target]” gave an activity (fold vs ZFA36) in data set [1] of 3.41.

In data set [2], “TGACTCCACCCAAGGTCTCC (double strand) [mouse TRB1 left target]” displayed an activity (fold vs ZFA36) of 3.79.

In the case of “TCTGCCTGTTCACCGACT (double strand) [mouse TRA2 left target]”, the activity (fold vs ZFA36) in data set [3] was 3.09.

Turning to “TGTGCTTGGCCAGGGGCTTC (double strand) [mouse TRB2 left target]”, the activity (fold vs ZFA36) in data set [4] was found to be 3.41.

Regarding “AAAAGCAGAGATTGCAAACA (double strand) [mouse TRB1 right target]”, the activity (fold vs ZFA36) in data set [5] was 3.79.

As for “AATGTGCCGAAAACCATGGA (double strand) [mouse TRA2 right target]”, in data set [6], the activity (fold vs ZFA36) amounted to 3.09.
